In IntAct's records for PubMed 28776325:

Tests used:
rab4a_human RAB4A [1] = target: rab4a_human RAB4A (UniProt P20338)
rab4a_human RAB4A [2] = target: rab4a_human RAB4A (UniProt P20338); remark: listed apart in the source

Sequence of rab4a_human RAB4A (P20338 whole entry): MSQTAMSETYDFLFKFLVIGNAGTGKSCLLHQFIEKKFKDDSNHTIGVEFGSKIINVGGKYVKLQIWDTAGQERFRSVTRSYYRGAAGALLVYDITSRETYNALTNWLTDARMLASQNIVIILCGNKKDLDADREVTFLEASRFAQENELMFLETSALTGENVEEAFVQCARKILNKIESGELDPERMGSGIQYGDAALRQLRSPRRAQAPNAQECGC
Sequence of Protein NDRG1 (Homo sapiens), Q92597 L146P (Q92597 whole entry L146P): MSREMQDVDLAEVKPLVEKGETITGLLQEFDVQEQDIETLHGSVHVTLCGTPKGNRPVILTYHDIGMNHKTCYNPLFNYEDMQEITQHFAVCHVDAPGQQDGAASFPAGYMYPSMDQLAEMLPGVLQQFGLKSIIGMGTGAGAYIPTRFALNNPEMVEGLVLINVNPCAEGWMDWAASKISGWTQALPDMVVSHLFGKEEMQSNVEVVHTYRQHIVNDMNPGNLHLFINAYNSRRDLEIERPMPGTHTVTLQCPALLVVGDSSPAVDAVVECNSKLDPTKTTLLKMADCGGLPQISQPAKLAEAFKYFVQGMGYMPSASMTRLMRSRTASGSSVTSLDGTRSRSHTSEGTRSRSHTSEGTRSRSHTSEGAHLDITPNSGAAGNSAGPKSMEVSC
Sequence of Protein NDRG1 (Homo sapiens), Q92597 R234Q (Q92597 whole entry R234Q): as the sequence (Q92597 whole entry L146P) above, with P146L, R234Q counted along it

effect of a mutation on the interaction (rab4a_human RAB4A [1]) | effect of a mutation on the interaction (rab4a_human RAB4A [2]) | Substance
with no effect |  | Protein NDRG1 (Homo sapiens), Q92597 R234Q
with no effect | decreasing interaction strength | Protein NDRG1 (Homo sapiens), Q92597 L146P
